Measured values reported in article PMC2596486 (PLoS ONE, 2008).

Columns and labels:
[1] = target: T1, rHA subtype H1 (A/New Caledonia/20/99) (Influenza A virus A/New …, UniProt Q6WG00, strain); assay: ELISA; details: both partners purified
T1 construct: source: bought: Protein Sciences Corp. (baculovirus vectors in insect cells)

[2] = target: T2, rHA subtype H7 (A/Netherlands/219/03) (Influenza A virus …, UniProt Q6VMK1); assay: ELISA; details: both partners purified
T2 construct: source: bought: Protein Sciences Corp. (baculovirus vectors in insect cells)

B1: CR6323 human IgG1 (antibody, V domains shown)
VH: EVQLVESGAEVKKPGSSVKVSCKASGGTFSSYGISWVRQAPGQGLEWMGDIIGMFGSTNYAQNFQGRLTITADESTSTAYMELSSLRSEDTAVYYCARSSGYYPAYLPHWGQGTLVTVSS
VL: not shown
[1]
  binding result: binds
[2]
  binding result: no binding (tested: 5 µg/ml IgG1)
